From patent US20240116985A1 (published 2024)
Starred links: 1 amine or outer side, 2 acyl side, 3 side chain; linkers in the order of their positions; H or OH if unused. Positions of bridges follow the written chain, without caps; N, C: chain ends. Non-standard residues stand in square brackets, D forms with d. Primed or numbered codes have the meaning given here. B5(17) = 2,2-bis(4-pentenyl)glycine = 2-amino-2-(pent-4-en-1-yl)hept-6-enoic acid, stitching residue, C=CCCCC(CCCC=C)(N[*:1])C(=O)[*:2]; B5(4) = 2,2-bis(4-pentenyl)glycine = 2-amino-2-(pent-4-en-1-yl)hept-6-enoic acid (stitching residue), C=CCCCC(CCCC=C)(N[*:1])C(=O)[*:2]; Phe(3,4-F2) = N[C@@H](Cc1ccc(F)c(F)c1)C(=O)O; Phe(3-F) = N[C@@H](Cc1cccc(F)c1)C(=O)O; Phe(4-F) = N[C@@H](Cc1ccc(F)cc1)C(=O)O; 1Nal = N[C@@H](Cc1cccc2ccccc12)C(=O)O; αAllylPro = C=CC[C@@]1(C(=O)O)CCCN1; 2Pal = N[C@@H](Cc1ccccn1)C(=O)O; 3Pal = N[C@@H](Cc1cccnc1)C(=O)O; S8 = C=CCCCCCC[C@](C)(N)C(=O)O

target: T1, beta-catenin, full-length (Uniprot ID P35222) (Homo sapiens (Human), UniProt P35222 2-781); assay: fluorescence polarization competition, displacement of 5FAM-TCF4 10-53 from full-length beta-catenin
T1 construct: tags are not described; also called bCat; B-Catenin
T1 sequence: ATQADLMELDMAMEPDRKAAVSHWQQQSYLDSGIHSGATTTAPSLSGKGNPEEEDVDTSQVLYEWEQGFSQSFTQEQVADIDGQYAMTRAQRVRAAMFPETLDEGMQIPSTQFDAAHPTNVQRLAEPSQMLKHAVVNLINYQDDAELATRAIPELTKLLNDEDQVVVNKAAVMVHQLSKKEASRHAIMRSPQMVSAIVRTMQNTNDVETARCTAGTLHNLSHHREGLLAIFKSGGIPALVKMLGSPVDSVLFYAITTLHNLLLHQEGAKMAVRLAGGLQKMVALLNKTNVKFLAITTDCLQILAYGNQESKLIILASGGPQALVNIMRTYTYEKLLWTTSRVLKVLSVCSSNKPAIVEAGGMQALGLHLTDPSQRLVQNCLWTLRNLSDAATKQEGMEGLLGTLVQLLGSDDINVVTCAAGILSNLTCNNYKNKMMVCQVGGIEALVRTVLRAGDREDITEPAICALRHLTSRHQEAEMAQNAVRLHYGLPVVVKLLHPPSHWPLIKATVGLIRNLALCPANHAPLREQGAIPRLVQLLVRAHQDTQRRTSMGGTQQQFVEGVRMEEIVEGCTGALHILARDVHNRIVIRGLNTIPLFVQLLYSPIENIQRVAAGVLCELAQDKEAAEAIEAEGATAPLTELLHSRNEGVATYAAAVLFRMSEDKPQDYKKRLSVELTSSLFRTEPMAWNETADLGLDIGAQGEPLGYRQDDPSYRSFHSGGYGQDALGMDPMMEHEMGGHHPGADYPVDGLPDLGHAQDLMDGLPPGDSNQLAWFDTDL
Protocol: The plate was incubated protected from light for 60 minutes at 20° C. prior to read. Reads were performed on a CLARIOstar plate reader (BMG Labtech) in duplicate, and data were fitted to a 1:1 binding model with hill slope using an in-house script. All provided concentrations are final concentrations.

Binder	IC50
Ac-[αAllylPro]DA[B5(17)]D[3Pal]AAFV[S8]FWQ-NH2 (staple 1-4, 4-11, Stapled (stitched) peptide) [I-271: Ac-PL3-Asp-Ala-B5-Asp-3PyrA-Ala-Ala-Phe-Val-S8-Phe-Trp-Gln-NH2]	5 µM
Ac-[αAllylPro]DA[B5(4)]DDAAFV[S8][1Nal]WQ-NH2 (staple 1-4, 4-11; also: earlier-eluting HPLC staple isomer, Stapled (stitched) peptide) [I-275: Ac-PL3-Asp-Ala-B5-Asp-Asp-Ala-Ala-Phe-Val-S8-1NapA-Trp-Gln-NH2]	5 µM
Ac-[αAllylPro]DA[B5(4)]DDAAFV[S8][1Nal]WQ-NH2 (staple 1-4, 4-11; also: later-eluting HPLC staple isomer, Stapled (stitched) peptide) [I-276: Ac-PL3-Asp-Ala-B5-Asp-Asp-Ala-Ala-Phe-Val-S8-1NapA-Trp-Gln-NH2]	3.43 µM
Ac-[αAllylPro]DA[B5(17)]D[2Pal]AAFV[S8]FWQ-NH2 (staple 1-4, 4-11, Stapled (stitched) peptide) [I-270: Ac-PL3-Asp-Ala-B5-Asp-2PyrA-Ala-Ala-Phe-Val-S8-Phe-Trp-Gln-NH2]	5 µM
Ac-[αAllylPro]DA[B5(17)]DDAA[Phe(3,4-F2)]V[S8]FWQ-NH2 (staple 1-4, 4-11, Stapled (stitched) peptide) [I-267: Ac-PL3-Asp-Ala-B5-Asp-Asp-Ala-Ala-34FF-Val-S8-Phe-Trp-Gln-NH2]	5 µM
Ac-[αAllylPro]DA[B5(4)]DDAA[Phe(3-F)]V[S8]FWQ-NH2 (staple 1-4, 4-11; also: staple isomer composition, later HPLC peak, Stapled (stitched) peptide) [I-265: Ac-PL3-Asp-Ala-B5-Asp-Asp-Ala-Ala-3FF-Val-S8-Phe-Trp-Gln-NH2]	3.76 µM
XDAXDDAAFVXFWA (not fully specified; N-terminal Ac; PL3 at 1, B5 at 4, S8 at 11 (olefin-metathesis staples 1-4 and 4-11); C-terminal amide, Stapled (stitched) peptide) [I-292: Ac-PL3-Asp-Ala-B5-Asp-Asp-Ala-Ala-Phe-Val-S8-Phe-Trp-Ala-NH2]	1.87 µM
XDAXDDAAFVXFWA (not fully specified; N-terminal Ac; PL3 at 1, B5 at 4, S8 at 11 (olefin-metathesis staples 1-4 and 4-11); C-terminal amide, Stapled (stitched) peptide) [I-291: Ac-PL3-Asp-Ala-B5-Asp-Asp-Ala-Ala-Phe-Val-S8-Phe-Trp-Ala-NH2]	3.13 µM
XDAXDDAAFVXHWQ (not fully specified; N-terminal Ac; PL3 at 1, B5 at 4, S8 at 11 (olefin-metathesis staples 1-4 and 4-11); C-terminal amide, Stapled (stitched) peptide) [I-285: Ac-PL3-Asp-Ala-B5-Asp-Asp-Ala-Ala-Phe-Val-S8-His-Trp-Gln-NH2]	5 µM
XDAXDDAAFAXFWA (not fully specified; N-terminal Ac; PL3 at 1, B5 at 4, S8 at 11 (olefin-metathesis staples 1-4 and 4-11); C-terminal amide, Stapled (stitched) peptide) [I-286: Ac-PL3-Asp-Ala-B5-Asp-Asp-Ala-Ala-Phe-Ala-S8-Phe-Trp-Ala-NH2]	4.48 µM
XDAXDDAAFVXFW (not fully specified; N-terminal Ac; PL3 at 1, B5 at 4, S8 at 11 (olefin-metathesis staples 1-4 and 4-11); C-terminal amide, Stapled (stitched) peptide) [I-289: Ac-PL3-Asp-Ala-B5-Asp-Asp-Ala-Ala-Phe-Val-S8-Phe-Trp-NH2]	5 µM
Ac-[αAllylPro]DA[B5(17)]DDAA[Phe(4-F)]V[S8]FWQ-NH2 (staple 1-4, 4-11, Stapled (stitched) peptide) [I-266: Ac-PL3-Asp-Ala-B5-Asp-Asp-Ala-Ala-4FF-Val-S8-Phe-Trp-Gln-NH2]	5 µM
